Source: article PMC4369429

Target: Steroid receptor coactivator 3 (SRC-3), recombinant, wild type (UniProt Q9Y6Q9)
Experiment: cryo-EM structure

UniProt Q9Y6Q9, sequence (Q9Y6Q9 whole entry): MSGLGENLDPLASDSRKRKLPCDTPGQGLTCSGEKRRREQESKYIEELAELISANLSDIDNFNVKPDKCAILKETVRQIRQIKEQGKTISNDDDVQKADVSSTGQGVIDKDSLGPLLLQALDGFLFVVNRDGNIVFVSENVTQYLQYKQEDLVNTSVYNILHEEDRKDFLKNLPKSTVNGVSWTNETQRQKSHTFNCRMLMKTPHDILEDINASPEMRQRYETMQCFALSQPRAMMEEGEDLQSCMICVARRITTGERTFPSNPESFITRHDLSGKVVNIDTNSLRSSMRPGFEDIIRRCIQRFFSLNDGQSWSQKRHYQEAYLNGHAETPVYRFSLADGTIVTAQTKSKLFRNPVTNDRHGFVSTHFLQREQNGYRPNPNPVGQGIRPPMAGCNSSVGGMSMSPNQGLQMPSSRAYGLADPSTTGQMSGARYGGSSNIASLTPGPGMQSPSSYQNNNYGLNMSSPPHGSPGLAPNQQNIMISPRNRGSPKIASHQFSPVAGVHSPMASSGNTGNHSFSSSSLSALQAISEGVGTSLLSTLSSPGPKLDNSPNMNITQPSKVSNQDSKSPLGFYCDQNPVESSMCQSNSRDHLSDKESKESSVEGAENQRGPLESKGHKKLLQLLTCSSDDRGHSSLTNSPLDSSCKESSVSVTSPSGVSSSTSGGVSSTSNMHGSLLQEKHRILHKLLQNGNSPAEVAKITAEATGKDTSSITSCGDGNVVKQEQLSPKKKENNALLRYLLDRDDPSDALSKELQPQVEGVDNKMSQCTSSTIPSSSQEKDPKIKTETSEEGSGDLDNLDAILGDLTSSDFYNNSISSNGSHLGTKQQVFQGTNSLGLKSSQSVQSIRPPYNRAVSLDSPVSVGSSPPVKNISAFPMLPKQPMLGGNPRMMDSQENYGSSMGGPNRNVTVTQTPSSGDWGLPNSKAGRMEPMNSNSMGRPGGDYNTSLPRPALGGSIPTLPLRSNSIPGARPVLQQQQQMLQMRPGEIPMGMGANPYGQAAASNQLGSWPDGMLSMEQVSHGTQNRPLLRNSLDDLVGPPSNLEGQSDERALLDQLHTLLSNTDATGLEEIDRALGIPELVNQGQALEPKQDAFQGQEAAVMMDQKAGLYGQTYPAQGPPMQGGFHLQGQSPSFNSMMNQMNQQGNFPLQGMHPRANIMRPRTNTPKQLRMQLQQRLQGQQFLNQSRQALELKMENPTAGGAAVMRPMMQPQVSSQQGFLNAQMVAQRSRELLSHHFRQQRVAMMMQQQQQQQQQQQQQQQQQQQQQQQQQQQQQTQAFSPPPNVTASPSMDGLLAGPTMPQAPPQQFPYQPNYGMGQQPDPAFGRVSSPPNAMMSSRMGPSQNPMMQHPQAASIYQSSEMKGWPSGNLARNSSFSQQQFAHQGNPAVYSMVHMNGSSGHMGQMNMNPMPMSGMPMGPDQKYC

Which stoichiometry N (p300 molecule per two SRC-3) does the source give for p300, recombinant, Q09472 1-2414 here?
Its stoichiometry N (p300 molecule per two SRC-3) is 1.
